Laboratory results from article PMC10303064, “Sulfated Lactosyl Archaeol Archaeosome-Adjuvanted Vaccine Formulations Targeting Rabbit Hemorrhagic Disease Virus Are Immunogenic and Efficacious” (Vaccines, 2023).

Target: the molecule itself
Experiment: negative-stain transmission electron microscopy; purified RHDV2 VP60 protein alone adsorbed on glow-discharged formvar/carbon copper grids, stained with 1% uranyl acetate, imaged at 300 keV

B1: RHDV2 VP60 capsid protein (natural protein)
chain: EGKARAAPQGETAGTATTASVPGTTTDGMDPGVVATTSVVTTENASTSIATAGIGGPPQQVDQQETWRTNFYYNDVFTWSVADAPGNILYTVQHSPQNNPFTAVLSQMYAGWAGGMQFRFIVAGSGVFGGRLVAAVIPPGIEIGPGLEVRQFPHVVIDARSLEPVTITMPDLRPNMYHPTGNPGLVPTLVLSVYNNLINPFGGSTSAIQVTVETRPSEDFEFVMIRAPSSKTVDSISPADLLTTPVLTGVGTDNRWNGEIVGLQPVPGGFSTCNRHWNLNGSTFGWSSPRFAAIDHDGGNASFPGSSSSNVLELWYASAGSATDNPISQIAPDGFPDMSFVPFSGSTIPTAGWVGFGGIWNSNNGAPFVTTMQAYELGFATGAPSNPQPTTTTSGAQIVAKSIYGVANGINQTTAGLFVMASGVISTPNSSAITYTPQPNRIVNAPGTPAAAPIGKNTPIMFASVVRRTGDINAEAGSTNGTQYGAGSQPLPVTVGLSLNNYSSALMPGQFFVWQLNFASGFMELGLSVDGYFYAGTGALATLIDLSELVDIRPVGPRPSTSTLVYNLGGTTNGFSYV
notes: VP60 capsid protein of rabbit hemorrhagic disease virus 2 (RHDV2); the tag was removed after purification; After TEV cleavage a single G of the ENLYFQG site probably stays in front of E2 (surmised); Self-assembles into virus-like particles of ~30 nm; also called RHDV2 VLP; RHDV2 capsid protein; source: Baculovirus expression system (GenScript), purified, tag removed; not shown: His6, N-terminal, …
B1: binds.
